Results taken from patent publication US20260174875A1 (Novo Nordisk A/S, priority 2023, published 2026).
Numbered stars: 1 amine (or outer) side, 2 acyl side, 3 side chain; on linkers, the order of the positions; unused ones are H or OH. Square brackets hold non-standard residues; d marks the D form. Side chains are listed from the residue outwards. * marks the point of attachment. C20 diacid = O=C(O)CCCCCCCCCCCCCCCCCCC(=O)*; γGlu = O=C(O)[C@H](CCC(=O)[*:2])N[*:1]; Chem. 27 = not defined here; AEEA = NCCOCCOCC(=O)O; Aib = CC(C)(N)C(=O)O

T1: human amylin-3(a) receptor (human, UniProt P30988 25-474; O60896 24-148)
T1 sequence (looked up) 1: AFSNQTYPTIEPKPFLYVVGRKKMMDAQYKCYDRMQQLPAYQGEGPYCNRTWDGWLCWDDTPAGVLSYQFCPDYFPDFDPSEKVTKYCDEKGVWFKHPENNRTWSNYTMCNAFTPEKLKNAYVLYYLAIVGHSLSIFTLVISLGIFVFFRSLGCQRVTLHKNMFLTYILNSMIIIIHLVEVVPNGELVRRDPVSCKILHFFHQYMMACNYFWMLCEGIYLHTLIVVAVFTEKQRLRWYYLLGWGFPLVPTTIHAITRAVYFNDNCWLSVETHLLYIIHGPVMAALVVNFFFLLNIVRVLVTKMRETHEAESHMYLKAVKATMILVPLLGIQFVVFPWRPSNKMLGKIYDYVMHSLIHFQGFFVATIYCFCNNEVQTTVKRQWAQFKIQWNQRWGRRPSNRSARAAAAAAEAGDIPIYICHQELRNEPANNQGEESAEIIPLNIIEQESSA
T1 sequence (looked up) 2: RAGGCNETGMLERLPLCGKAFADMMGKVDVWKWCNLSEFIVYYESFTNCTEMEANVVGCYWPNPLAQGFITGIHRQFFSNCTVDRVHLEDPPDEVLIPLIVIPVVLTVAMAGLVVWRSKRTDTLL

T2: human GIP receptor (human, UniProt P48546 22-466)
T2 sequence (looked up): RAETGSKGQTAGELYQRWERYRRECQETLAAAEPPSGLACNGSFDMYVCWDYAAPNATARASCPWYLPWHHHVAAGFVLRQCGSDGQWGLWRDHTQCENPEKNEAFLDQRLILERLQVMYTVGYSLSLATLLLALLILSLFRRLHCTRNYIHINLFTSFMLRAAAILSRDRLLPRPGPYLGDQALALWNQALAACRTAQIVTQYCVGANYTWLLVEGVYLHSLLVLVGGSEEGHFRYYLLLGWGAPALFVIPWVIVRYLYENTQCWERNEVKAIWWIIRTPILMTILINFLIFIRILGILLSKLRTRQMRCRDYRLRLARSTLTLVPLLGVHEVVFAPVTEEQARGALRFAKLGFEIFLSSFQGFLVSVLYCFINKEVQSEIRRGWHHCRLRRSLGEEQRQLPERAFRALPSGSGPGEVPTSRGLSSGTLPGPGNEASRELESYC

B1: Compound 183 (peptide)
peptide: Y[Aib]EGTFTSDYSK(Chem. 27)LLEEIAAREFIEWLLAGGPSSGAGASELSTAQLGRLSAELHQLATLPRTETGSGSP-NH2
modifications: reading uncertain
B2: Compound 179 (peptide)
peptide: Y[Aib]EGTFTSDYSILLEEIAAREFIEWLLAGGPSSGAGASHLSTAQTQRLSAELHK(Chem. 27)LATEPRTETGSGSP-NH2
modifications: reading uncertain
B3: Compound 181 (peptide)
peptide: Y[Aib]EGTFTSDYSILLEEIAAREFIEWLLAGGPSSEAGASQLSTAQTQRLSAELHK(Chem. 27)LATLPRTETGSGSP-NH2
modifications: reading uncertain
B4: Compound 176 (peptide)
peptide: Y[Aib]EGTFTSDYSILLEEIAAREFIEWLLAGGPSSGAGASELSTAQTQRLSAELHK(Chem. 27)LATLPRTETGSGSP-NH2
modifications: reading uncertain
B5: Compound 189 (peptide)
peptide: Y[Aib]EGTFTSDYSILLEEIAAREFIEWLLAGGPSSGAGEAPGEAPGASHLSTAQTQRLSAELHK(Chem. 27)LATLPRTETGSGSP-NH2
modifications: reading uncertain
B6: Compound 115 (peptide)
peptide: Y[Aib]EGTFTSDYSILLEEQAAREFIEWLLAGGPSSGAGQAPGQAPGASHLSTAQTQRLSAELHK([AEEA-AEEA-γGlu-C20 diacid])LATLPRTETGSGSP-NH2

Target: T1, human amylin-3(a) receptor
Assay: cell-based or functional assay
Details: not given

Row | hAMYR3 Potency, 1% HSA, EC50 [pM] | Molecule
1 | 108 pM | B1
2 | 1350 pM | B2
3 | 1300 pM | B3
4 | 798 pM | B4
5 | 1210 pM | B5
6 | 551 pM | B6

Target: T3, human GLP-1 receptor (human, UniProt P43220 24-463)
Assay: cell-based or functional assay
Details: not given

Row | hGLP-1R Potency, 1% HSA, EC50 [pM] | Molecule
7 | 744 pM | B1
8 | 170 pM | B2
9 | 134 pM | B3
10 | 178 pM | B4
11 | 81.9 pM | B5
12 | 92.9 pM | B6

Target: T2, human GIP receptor
Assay: cell-based or functional assay
Details: not given

Row | hGIPR Potency, 1% HSA, EC50 [pM] | Molecule
13 | 71.4 pM | B1
14 | 25.5 pM | B2
15 | 20.1 pM | B3
16 | 23.8 pM | B4
17 | 9.18 pM | B5
18 | 38.9 pM | B6

Target: T1, human amylin-3(a) receptor
Assay: cell-based or functional assay
Details: not given
Remark: another data set of the same source

Row | hAMYR3 Potency, no HSA, EC50 [pM] | Molecule
19 | 6.2 pM | B1
20 | 10 pM | B2
21 | 8.46 pM | B3
22 | 11.2 pM | B4
23 | 12.7 pM | B5
24 | 7.13 pM | B6

Target: T3, human GLP-1 receptor
Assay: cell-based or functional assay
Details: not given
Remark: another data set of the same source

Row | hGLP-1R Potency, no HSA, EC50 [pM] | Molecule
25 | 23.3 pM | B2
26 | 28.8 pM | B3
27 | 29.9 pM | B4
28 | 26.9 pM | B5
29 | 19.4 pM | B6

Target: T2, human GIP receptor
Assay: cell-based or functional assay
Details: not given
Remark: another data set of the same source

Row | hGIPR Potency, no HSA, EC50 [pM] | Molecule
30 | 2 pM | B1
31 | 4.36 pM | B2
32 | 3.25 pM | B3
33 | 3.66 pM | B4
34 | 3.18 pM | B5
35 | 10.3 pM | B6

Tested on: not given
Assay: not given
Details: endogenous hormone; cited from earlier work

Row | Molecule | half-life
36 | Amylin (KCNTATCATQRLANFLVHSSNNFGAILSSTNVGSNTY; Islet amyloid polypeptide; UniProt P10997 34-70, looked up) ["a 37-amino acid long polypeptide hormone produced in pancreatic beta (β)-cell from where it is co-secreted with insulin"] | 15 to 20 min
